Source: patent US20240261333A1 (published 2024)
Each block holds one binder with its values, some of them ahead of it.

Assays:
Assay in all cases: co-IP with anti-FLAG, N-FLAG B3GNT2, mass spectrometry
TBL2 = molecular target: T1, TBL2 (human, UniProt Q9Y4P3 1-447)
T1 construct: also called NP_036585.1
T1 sequence (looked up): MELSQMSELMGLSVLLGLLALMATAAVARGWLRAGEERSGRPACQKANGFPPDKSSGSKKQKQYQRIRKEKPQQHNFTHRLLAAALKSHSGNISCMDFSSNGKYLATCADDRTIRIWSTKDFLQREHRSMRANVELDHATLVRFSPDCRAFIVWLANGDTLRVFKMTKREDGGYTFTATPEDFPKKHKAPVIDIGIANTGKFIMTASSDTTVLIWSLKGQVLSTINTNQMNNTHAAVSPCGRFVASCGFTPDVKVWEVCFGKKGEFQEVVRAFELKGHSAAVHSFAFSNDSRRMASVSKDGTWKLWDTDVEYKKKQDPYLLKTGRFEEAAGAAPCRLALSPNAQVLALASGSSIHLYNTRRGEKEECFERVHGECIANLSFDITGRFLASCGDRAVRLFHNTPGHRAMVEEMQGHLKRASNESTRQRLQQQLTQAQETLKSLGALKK

YTHDF2 = molecular target: T2, YTHDF2 (human, UniProt Q9Y5A9 2-579)
T2 construct: also called NP_057342.2
T2 sequence (looked up): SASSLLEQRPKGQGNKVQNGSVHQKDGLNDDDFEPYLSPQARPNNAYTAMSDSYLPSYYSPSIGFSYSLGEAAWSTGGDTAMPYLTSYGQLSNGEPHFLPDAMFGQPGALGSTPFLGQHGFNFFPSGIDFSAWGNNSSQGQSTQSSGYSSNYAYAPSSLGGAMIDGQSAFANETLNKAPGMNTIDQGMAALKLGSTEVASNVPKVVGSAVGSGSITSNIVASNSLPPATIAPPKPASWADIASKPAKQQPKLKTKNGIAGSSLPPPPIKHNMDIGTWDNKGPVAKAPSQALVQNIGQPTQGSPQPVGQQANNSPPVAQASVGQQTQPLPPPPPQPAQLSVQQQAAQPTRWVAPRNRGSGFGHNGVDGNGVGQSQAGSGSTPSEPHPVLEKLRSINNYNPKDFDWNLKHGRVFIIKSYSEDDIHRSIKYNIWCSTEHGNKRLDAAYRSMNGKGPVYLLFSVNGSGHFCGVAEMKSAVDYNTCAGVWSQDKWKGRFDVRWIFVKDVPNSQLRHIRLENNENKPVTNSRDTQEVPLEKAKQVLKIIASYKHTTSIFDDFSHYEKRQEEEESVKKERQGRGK

SYNM = molecular target: T3, SYNM (human, UniProt O15061 1-1565)
T3 construct: also called NP_663780.2
T3 sequence (O15061 whole entry): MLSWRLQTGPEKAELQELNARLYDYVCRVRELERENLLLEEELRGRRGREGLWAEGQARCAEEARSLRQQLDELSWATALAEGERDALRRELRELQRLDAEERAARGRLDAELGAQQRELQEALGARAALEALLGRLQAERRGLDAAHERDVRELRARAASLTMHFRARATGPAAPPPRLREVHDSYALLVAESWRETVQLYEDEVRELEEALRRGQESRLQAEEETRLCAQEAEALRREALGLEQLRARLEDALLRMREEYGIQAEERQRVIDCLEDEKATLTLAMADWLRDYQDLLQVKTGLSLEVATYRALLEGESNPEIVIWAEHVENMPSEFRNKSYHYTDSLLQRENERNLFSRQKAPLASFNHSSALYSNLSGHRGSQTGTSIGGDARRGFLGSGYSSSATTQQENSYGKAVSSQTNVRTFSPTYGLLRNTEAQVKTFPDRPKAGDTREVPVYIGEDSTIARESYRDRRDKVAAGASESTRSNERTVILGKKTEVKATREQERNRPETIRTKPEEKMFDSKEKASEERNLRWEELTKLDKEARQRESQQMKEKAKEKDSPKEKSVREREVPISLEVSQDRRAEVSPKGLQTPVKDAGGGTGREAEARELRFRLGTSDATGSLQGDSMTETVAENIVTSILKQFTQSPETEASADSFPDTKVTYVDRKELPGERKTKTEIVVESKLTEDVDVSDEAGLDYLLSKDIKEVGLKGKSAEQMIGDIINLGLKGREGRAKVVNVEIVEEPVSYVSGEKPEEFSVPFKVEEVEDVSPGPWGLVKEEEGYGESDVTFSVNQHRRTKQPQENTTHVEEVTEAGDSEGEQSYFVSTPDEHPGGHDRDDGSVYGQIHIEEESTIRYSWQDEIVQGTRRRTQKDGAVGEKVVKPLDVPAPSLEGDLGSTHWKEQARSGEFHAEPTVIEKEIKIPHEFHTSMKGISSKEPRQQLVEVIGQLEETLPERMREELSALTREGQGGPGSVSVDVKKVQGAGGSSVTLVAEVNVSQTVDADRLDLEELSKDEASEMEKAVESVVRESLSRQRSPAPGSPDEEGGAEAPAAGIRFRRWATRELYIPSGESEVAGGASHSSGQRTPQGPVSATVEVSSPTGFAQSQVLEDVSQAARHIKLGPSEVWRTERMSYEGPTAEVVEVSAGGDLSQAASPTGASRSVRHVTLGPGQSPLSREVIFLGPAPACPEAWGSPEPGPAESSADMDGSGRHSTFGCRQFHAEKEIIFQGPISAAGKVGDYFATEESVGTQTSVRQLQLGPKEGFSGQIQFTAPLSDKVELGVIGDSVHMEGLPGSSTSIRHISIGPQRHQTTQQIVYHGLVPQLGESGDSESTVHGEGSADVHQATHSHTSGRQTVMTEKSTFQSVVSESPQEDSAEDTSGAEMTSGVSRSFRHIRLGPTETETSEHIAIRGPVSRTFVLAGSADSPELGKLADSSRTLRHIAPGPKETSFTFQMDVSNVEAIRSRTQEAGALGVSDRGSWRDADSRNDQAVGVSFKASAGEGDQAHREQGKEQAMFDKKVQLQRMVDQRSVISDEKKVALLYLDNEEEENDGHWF

SBSN = molecular target: T4, SBSN (human, UniProt Q6UWP8 26-590)
T4 construct: also called NP_00159506.1 (+2)
T4 sequence (looked up): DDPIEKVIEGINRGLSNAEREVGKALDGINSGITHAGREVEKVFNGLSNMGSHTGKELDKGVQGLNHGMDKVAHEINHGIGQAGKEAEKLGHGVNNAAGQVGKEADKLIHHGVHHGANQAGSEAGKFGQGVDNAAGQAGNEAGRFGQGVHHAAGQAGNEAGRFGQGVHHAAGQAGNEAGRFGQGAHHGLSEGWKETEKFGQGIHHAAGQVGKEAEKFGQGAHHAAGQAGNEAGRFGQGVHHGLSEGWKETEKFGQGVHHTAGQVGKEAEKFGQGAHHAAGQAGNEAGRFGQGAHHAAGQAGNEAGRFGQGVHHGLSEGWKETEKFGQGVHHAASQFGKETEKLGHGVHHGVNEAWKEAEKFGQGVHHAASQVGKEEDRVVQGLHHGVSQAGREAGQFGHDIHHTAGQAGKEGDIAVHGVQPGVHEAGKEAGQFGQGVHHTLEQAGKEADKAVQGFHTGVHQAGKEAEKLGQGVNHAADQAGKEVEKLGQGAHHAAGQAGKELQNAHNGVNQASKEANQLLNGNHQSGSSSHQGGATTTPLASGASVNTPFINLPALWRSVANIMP

co-IP mass spectrometry count (TBL2): 0
co-IP mass spectrometry count (YTHDF2): 5
co-IP mass spectrometry count (SYNM): 5
B1: N-terminal FLAG tagged B3GNT2 (enzyme, human, UniProt Q9NY97 1-397, looked up)
chain: MSVGRRRIKLLGILMMANVFIYFIMEVSKSSSQEKNGKGEVIIPKEKFWKISTPPEAYWNREQEKLNRQYNPILSMLTNQTGEAGRLSNISHLNYCEPDLRVTSVVTGFNNLPDRFKDFLLYLRCRNYSLLIDQPDKCAKKPFLLLAIKSLTPHFARRQAIRESWGQESNAGNQTVVRVFLLGQTPPEDNHPDLSDMLKFESEKHQDILMWNYRDTFFNLSLKEVLFLRWVSTSCPDTEFVFKGDDDVFVNTHHILNYLNSLSKTKAKDLFIGDVIHNAGPHRDKKLKYYIPEVVYSGLYPPYAGGGGFLYSGHLALRLYHITDQVHLYPIDDVYTGMCLQKLGLVPEKHKGFRTFDIEEKNKNNICSYVDLMLVHSRKPQEMIDIWSQLQSAHLKC
notes: FLAG-tagged ORF overexpressed in cells; pulled down from lysate with mouse anti-FLAG; also called N-FLAG B3GNT2; N-term FLAG; not shown: N-terminal FLAG tag

co-IP/MS count, N-term FLAG (SBSN): 27
B2: N-terminal FLAG tagged B3GNT2 (enzyme, human, UniProt Q9NY97 1-397, looked up)
chain: B1 chain
notes: FLAG-tagged ORF overexpressed in A375 cells; pulled down from the lysate with mouse anti-FLAG; also called N-FLAG B3GNT2; N-term FLAG; not shown: N-terminal FLAG tag
